Results taken from the supplement of paper PMC9170038.

Tests used:
MS2 coat protein [1] = assay: apparent KD of MS2 coat protein, switch ON state; designed switch direction (-1 OFF switch, 1 ON switch): 1; higher = weaker reporter binding; details: FMN input: 0 or 200 uM; Eterna round: R93 (includes R88 designs)
How it was run: (§1)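 Designed RNA switches, transcribed on-chip from Illumina sequencing clusters, were titrated with SNAP-549-labelled MS2 coat protein from 0.7 or 1.5 nM to 3 µM in twofold steps. The solution was 100 mM Tris-HCl pH 7.5, 80 mM KCl, 4 mM MgCl2, with constant ligand or without it. Apparent KD is the median over each design's normalised cluster binding-curve fits.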

MS2 coat protein [2] = assay: apparent KD of MS2 coat protein, switch OFF state (with FMN for OFF switches, without FMN for ON switches); designed switch direction (-1 OFF switch, 1 ON switch): 1; higher = weaker reporter binding; details: FMN input: 0 or 200 uM; Eterna round: R93 (includes R88 designs)
How it was run: as §1

Sequence	apparent KD of MS2 coat protein (MS2 coat protein [1])	apparent KD of MS2 coat protein (MS2 coat protein [2])
AGAAAAUAUGGGUAGGAUAUAUAAAGAGAAACAUGAGGAUCACCCAUGUAAAGACGAGAGUCAAAAUAGAAGGACUAAAGAAAGAA [Meechl MS2 SS2 2]	0.0862 µM	0.151 µM
GGAAAUAACAGAGAGGAUAUCCAAAGGAAAACAUGAGGAUCACCCAUGUAAAAGGAAGGAAAUUGGGAGAAGGCUCAAAAUAAUC [salish99-ss2-017]	0.0239 µM	0.0243 µM
CCUAGACAUGAGGAUCACCCAUGUCGAACAAACAAAGGAUAUGGGAGCCGAAGAAGGCUAUUAGAAGGUUGCAAAU [Aisedbi]	0.0294 µM	0.034 µM
AGCCGCACUAUACAGGAUAUCACAAUAUCGACAUGAGGAUCACCCAUGUGACUGGCACCAGUCGGUGAGAAGGGUGAAGUGCGGC [Raarati]	0.0906 µM	0.421 µM
GAACCACAUGAGGAUCACCCAUGUCUAAGAAUGGGAGGAUAUGCACAAAAGGAAAUAACUGCAGAAGGCCUACGAA [62%, Redo, 2]	0.0232 µM	0.129 µM
AAAAAACAUGAGGAUCACCCAUGUAGAAACAUGGGAGGAUAUACAAAGACGAAAGUCAAAGUAGAAGGCCUAAGAA [Mat - Same State 1 - Mod - D166]	0.0818 µM	0.0582 µM
GAAAAACAUGAGGAUCACCCAUGUAGAGAUAUGGGAGGAUAUACGAAGACGAAAGACGAGGUAGAAGGCCUAAAAG [Garnet 57]	0.0661 µM	0.218 µM
GUAGAACAUGAGGAUCACCCAUGUGAAGACGCAUGAGGAUAUAUCCGUACAUAGCAUACGAUAGAAGGCAUGAUAA [JR_SS001_Sub1704]	0.0296 µM	0.0906 µM
AAAAAACAUGAGGAUCACCCAUGUAAAAAUAUCACAGGAUAUGGAAACACGAAAGUGAAACCAGAAGGGUGAAAAG [77%, Mat - Mod of Eli, 12]	0.0201 µM	0.0441 µM
AUAGGGACGUCGGAGGAUAUUCGAUGUAAAACAUGAGGAUCACCCAUGUGAAUAAAAUAAACAUGGAAGAAGGCCGACGUGCCAU [SS 2 M 54]	0.0103 µM	0.0133 µM
CAUCAUGCGCCUAAGGAUAUGUCUCACAAGACAUGAGGAUCACCCAUGUAUAAUAAAUAAAUGAUGCAGAAGGUGGAGUGCAUGC [Latibe]	0.0877 µM	0.245 µM
AUAAAUAAAAUAGAGGAUAUCCAAAACAAAACAUGAGGAUCACCCAUGUAAAAGAAAAUAAAAUGGGAGAAGGCUACAAAUAAAU [SS2 M 3]	0.0201 µM	0.0305 µM
AAGAAACAUGAGGAUCACCCAUGUGAUAAUAUGGGAGGAUAUACAAAGACGAAAGUCGAAGUAGAAGGCCUAUGAA [Garnet 43]	0.0368 µM	0.062 µM
AAAAAACAUGAGGAUCACCCAUGUAAUAAAACGUCAGGAUAUUGAUUUUAUUAUUUAUUGCAAGAAGGGACAAAAA [Same State 1 - Omei 2]	0.0204 µM	0.0403 µM
AAGAAACAUGAGGAUCACCCAUGUAGAAAUAUGGGAGGAUAUACGAAGACGAAAGUCGAAGUAGAAGGCCUAAGAA [Mat - Same State 1 - Meechl mod - D131]	0.0151 µM	0.0719 µM
CGGGCCCGGGCGCAGGAUAUCUGAAAAAAAACAUGAGGAUCACCCAUGUGUGGGAAAAAAAAAAAAGAGAAGGGCGCCCGGGCCC [Natural State 2 -38.15 -4 kcal]	0.0294 µM	0.0486 µM
CAUCAUGCGCCUAAGGAUAUGUCUCACAAGACAUGAGGAUCACCCAUGUAGACAAAAUAAGCGAUGCAGAAGGUGGAGCGCAUGC [Rasoer]	0.0831 µM	0.348 µM
AAAGAAAAACUAGAGGAUAUCCGAGUGGUAACAUGAGGAUCACCCAUGUGAAGAAAGGAGCGUGAGGAGAAGGCUAGAAGAAAAA [JL Nando mod 24]	0.011 µM	0.146 µM
AAUCCAACUAGUCAGGAUAUCAGGCGUAAGACAUGAGGAUCACCCAUGUACUUAGUACAAGUAACUGAGAAGGGACAGGGUGACC [JR_SS002_Sub409]	0.0754 µM	0.0755 µM
AAAAAACAUGAGGAUCACCCAUGUGCAAAAUUCGCAGGAUAUUCUUCUCUUAAAUGAGAGGGAGAAGGGUGUAAAA [Nob's Hobby 24 - Jieux - Same State 1]	0.0182 µM	0.0433 µM
GGGAGACAUGAGGAUCACCCAUGUGAGAAGAGGCGAGGAUAUCGAAAGAAAGAAGAGAAACGAGAAGGCGCGAGUU [salish99-SS1-054]	0.035 µM	0.0547 µM
